The results in this text go back to PMC4409568 (Neuron, 2015).

No end group written: not given here.

Test [1] has as its target Arc(207-278) binding to TARPγ2 peptide (Rattus norvegicus, UniProt Q63053). The settings on record: Figure S5C; chlorpromazine data not shown.
For test [2], the target named is T1, RnArc (207-370), Arc GAG domain, wild type (rat, UniProt Q63053 207-370).
T1 sequence (looked up): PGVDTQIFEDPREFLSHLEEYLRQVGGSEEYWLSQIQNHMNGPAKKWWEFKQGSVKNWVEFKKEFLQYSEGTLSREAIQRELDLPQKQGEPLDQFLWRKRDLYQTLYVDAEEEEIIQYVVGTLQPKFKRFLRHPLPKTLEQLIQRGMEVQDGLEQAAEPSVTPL
As to the kind of experiment: pull-down.

Test [3] has as its target T1, RnArc (207-370), Arc GAG domain, wild …. Put plainly: fluorescence polarisation.
The target in test [4] is T2, Arc N-lobe (207-277) (rat, UniProt Q63053 207-277).
T2 sequence (looked up): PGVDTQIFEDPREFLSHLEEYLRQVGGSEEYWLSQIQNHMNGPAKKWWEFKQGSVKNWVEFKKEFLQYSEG
As to the kind of experiment: pull-down.

On to `CN1CCN(CCCN2c3ccccc3Sc3ccc(C(F)(F)F)cc32)CC1` [Trifluoperazine], for which the “inhibition of Arc N-lobe binding” value in test [1] is “inhibited binding, but with lower affinity”.

On to {GST}-DRHKQLRATARATDYLQASAITRIPSYRYRYQRRSRSSSRSTEPS (domain or fragment, mouse, UniProt O88602 203-247, looked up) [GST-TARPγ2 fragment (203-247)], for which the binding result in test [2] is “binds”.

RTPVFV (peptide, UniProt Q8R5H6 315-320, looked up) [WAVE1 peptide (aa315-320)]: in test [3], the binding result is listed as “binds”.

B1: GST-TARPγ2 cytoplasmic tail (203-323) (domain or fragment, mouse, UniProt O88602 203-323, looked up)
chain: DRHKQLRATARATDYLQASAITRIPSYRYRYQRRSRSSSRSTEPSHSRDASPVGVKGFNTLPSTEISMYTLSRDPLKAATTPTATYNSDRDNSFLQVHNCIQKDSKDSLHANTANRRTTPV
Regarding B1, the binding result in test [3] was “binds”.

TGLIENRPQSPAAGRTPVFVSPTPPPPPPPLPSALSTSSLRAS (domain or fragment, mouse, UniProt Q8R5H6 301-343, looked up) [GST-WAVE1 (aa301-343)]: the binding result in test [4] is reported as “binds”.
